± gives the uncertainty stated by the source.
B1: Mineralocorticoid receptor, residues 600 to 675; numbered along this chain, P08235 (parent)
chain: SKICLVCGDEASGCHYGVVTCGSCKVFFKRAVEGQHNYLCAGRNDCIIDKIRRKNCPACRLQKCLQAGMNLGARKS

Variants of: B1
Assay: abundance fitness (aPCA) (normalised: wild type 0, dead -1); higher = more abundant; growth selection in yeast, the domain comes from the species named
Conditions: Homo sapiens

Abundance fitness, by site and new letter:
I51: P -0.137 ± 0.066 | D -0.083 ± 0.1 | Y 0.048 ± 0.088 | W -0.164 ± 0.066 | M 0.024 ± 0.11 | F -0.076 ± 0.077 | Q 0.095 ± 0.076 | H 0.062 ± 0.092 | G -0.016 ± 0.043 | K -0.093 ± 0.051 | L 0.018 ± 0.056 | V 0.085 ± 0.055 | R -0.018 ± 0.042 | A -0.018 ± 0.048 | S 0.003 ± 0.042 | N -0.108 ± 0.068 | E -0.048 ± 0.057 | C -0.051 ± 0.073
N55: A -0.064 ± 0.047 | M -0.096 ± 0.062 | R -0.015 ± 0.039 | P -0.144 ± 0.047 | Y -0.155 ± 0.054 | H -0.038 ± 0.045 | D 0.017 ± 0.048 | E -0.082 ± 0.085 | W -0.085 ± 0.088 | F -0.093 ± 0.051 | L -0.021 ± 0.039 | Q 0.013 ± 0.082 | T 0.015 ± 0.04 | I 0.009 ± 0.048 | C -0.032 ± 0.057 | S -0.051 ± 0.038
K54: P -0.072 ± 0.046 | A -0.039 ± 0.049 | E -0.046 ± 0.092 | I -0.018 ± 0.04 | W -0.194 ± 0.074 | Q -0.071 ± 0.064 | G -0.059 ± 0.05 | V -0.065 ± 0.046 | N 0.013 ± 0.046 | D -0.031 ± 0.056 | R -0.083 ± 0.044 | T 0.038 ± 0.039 | H -0.118 ± 0.044 | Y -0.032 ± 0.048 | F 0 ± 0.05 | S 0.013 ± 0.035 | L -0.106 ± 0.046
Y38: I -0.069 ± 0.046 | P -0.038 ± 0.043 | A -0.027 ± 0.042 | C -0.153 ± 0.057 | R -0.088 ± 0.05 | D -0.041 ± 0.05 | F -0.027 ± 0.049 | S -0.049 ± 0.036 | H -0.059 ± 0.048 | M -0.117 ± 0.1 | G -0.164 ± 0.064 | K -0.026 ± 0.067 | V 0.012 ± 0.046 | T -0.051 ± 0.04 | Q -0.118 ± 0.077 | W -0.047 ± 0.084 | L -0.054 ± 0.039 | N -0.098 ± 0.039
C46: K -0.839 ± 0.17 | W -0.856 ± 0.15 | P -0.856 ± 0.13 | L -0.819 ± 0.094 | M -0.81 ± 0.3 | Q -0.966 ± 0.2 | S -0.946 ± 0.097 | G -0.636 ± 0.11 | V -0.813 ± 0.15 | I -0.827 ± 0.11 | E -0.852 ± 0.34 | R -0.821 ± 0.088 | A -0.744 ± 0.12 | D -0.785 ± 0.23 | H -0.011 ± 0.044 | F -0.653 ± 0.065 | N -0.921 ± 0.15
N37: Y -0.085 ± 0.048
C56: Y -0.562 ± 0.26 | R -0.358 ± 0.33
R53: D -0.024 ± 0.35 | W -0.035 ± 0.053 | N -0.075 ± 0.29 | G -0.045 ± 0.043 | Q -0.058 ± 0.068 | C -0.159 ± 0.15 | K -0.078 ± 0.07 | V 0.025 ± 0.073 | I -0.098 ± 0.14 | M -0.167 ± 0.09 | F -0.056 ± 0.19 | Y -0.261 ± 0.28 | E 0.087 ± 0.056 | L -0.098 ± 0.076 | T -0.042 ± 0.07 | S -0.095 ± 0.057 | P -0.056 ± 0.058
R43: G -0.006 ± 0.028 | Q -0.067 ± 0.043 | W -0.067 ± 0.04 | H -0.029 ± 0.04 | E 0.005 ± 0.042 | N -0.015 ± 0.036 | I -0.025 ± 0.034 | S -0.001 ± 0.027 | P -0.138 ± 0.038 | D -0.024 ± 0.043 | V -0.038 ± 0.03 | T -0.001 ± 0.032 | K 0.029 ± 0.049 | L -0.055 ± 0.029 | M 0.008 ± 0.048 | F -0.045 ± 0.035
A41: R -0.021 ± 0.044 | C -0.017 ± 0.06 | Q -0.074 ± 0.069 | V -0.053 ± 0.043 | N -0.079 ± 0.052 | T -0.048 ± 0.045 | M 0.052 ± 0.056 | Y 0.001 ± 0.06 | G 0.028 ± 0.04 | P -0.116 ± 0.048 | L -0.103 ± 0.041 | D 0.036 ± 0.051 | E 0.129 ± 0.081 | W -0.127 ± 0.075 | H -0.033 ± 0.045 | K -0.149 ± 0.077 | F -0.277 ± 0.07 | S -0.077 ± 0.041
A58: Q 0.035 ± 0.061 | G -0.051 ± 0.034 | F -0.082 ± 0.08 | V -0.446 ± 0.056 | E -0.12 ± 0.053 | M -0.141 ± 0.049 | S 0.012 ± 0.041 | L -0.175 ± 0.047 | W -0.102 ± 0.052 | N -0.03 ± 0.092 | D -0.085 ± 0.067 | I -0.827 ± 0.24 | K -0.044 ± 0.049 | R -0.033 ± 0.036 | C 0.05 ± 0.068 | P -0.117 ± 0.054
L39: Q -0.001 ± 0.058 | K -0.009 ± 0.053 | C 0.027 ± 0.049 | M 0.016 ± 0.054 | I -0.043 ± 0.047 | A -0.093 ± 0.039 | S -0.05 ± 0.041 | G -0.045 ± 0.038 | P -0.07 ± 0.057 | F -0.027 ± 0.044 | T -0.077 ± 0.044 | V -0.007 ± 0.035 | R -0.019 ± 0.036 | E -0.047 ± 0.057 | D 0.048 ± 0.065 | Y -0.054 ± 0.043
R52: H -0.055 ± 0.11 | F -0.14 ± 0.097 | T -0.04 ± 0.054 | K -0.056 ± 0.075 | D -0.072 ± 0.092 | I 0.049 ± 0.069 | V -0.114 ± 0.057 | L -0.149 ± 0.062 | M -0.131 ± 0.1 | P -0.081 ± 0.06 | A -0.034 ± 0.043 | Y -0.234 ± 0.11 | Q 0.027 ± 0.059 | C -0.043 ± 0.065 | W -0.052 ± 0.057 | G -0.027 ± 0.039 | S -0.04 ± 0.043
D49: H -0.276 ± 0.054 | I -0.274 ± 0.047 | F -0.251 ± 0.038 | K -0.167 ± 0.049 | Y -0.211 ± 0.048 | S -0.041 ± 0.028 | L -0.221 ± 0.039 | W -0.258 ± 0.038 | A -0.141 ± 0.031 | E -0.04 ± 0.038 | V -0.219 ± 0.039 | R -0.287 ± 0.029 | N -0.054 ± 0.043 | P -0.327 ± 0.049 | M -0.3 ± 0.079
D45: R -0.024 ± 0.035 | L -0.094 ± 0.034 | A -0.067 ± 0.033 | V -0.074 ± 0.031 | F -0.163 ± 0.046 | N -0.045 ± 0.04 | S -0.092 ± 0.037 | M -0.057 ± 0.054 | K -0.072 ± 0.047 | G -0.079 ± 0.032 | E 0.015 ± 0.042 | I -0.1 ± 0.041 | Q 0.016 ± 0.053 | T -0.104 ± 0.038 | Y -0.159 ± 0.044 | P -0.149 ± 0.046 | W -0.249 ± 0.054
C59: K -0.972 ± 0.17 | F -0.788 ± 0.13 | I -0.955 ± 0.14 | E -0.955 ± 0.15 | N -0.711 ± 0.092 | G -0.917 ± 0.083 | L -0.658 ± 0.062 | D -0.626 ± 0.093 | M -0.913 ± 0.2 | H -0.449 ± 0.068
C40: V -1.23 ± 0.22 | S -1.05 ± 0.14 | Y -0.737 ± 0.1 | I -0.759 ± 0.14 | N -0.477 ± 0.13 | G -0.986 ± 0.16 | F -1.13 ± 0.28 | H -0.341 ± 0.11 | R -1 ± 0.15 | T -0.68 ± 0.22 | W -0.697 ± 0.12 | A -0.816 ± 0.11 | E -0.646 ± 0.15 | D -0.819 ± 0.15 | L -0.847 ± 0.13 | K -0.73 ± 0.16
P57: D 0.061 ± 0.051 | W -0.027 ± 0.059 | K 0.006 ± 0.057 | A -0.04 ± 0.042 | E -0.048 ± 0.078 | L -0.142 ± 0.036 | F -0.016 ± 0.045 | S -0.051 ± 0.039 | T -0.082 ± 0.04 | Q -0.09 ± 0.059 | R -0.115 ± 0.044 | V -0.135 ± 0.046 | G -0.062 ± 0.065 | H -0.002 ± 0.04 | C -0.042 ± 0.057 | N -0.018 ± 0.038 | I -0.168 ± 0.044
G42: I -0.033 ± 0.044 | V 0.005 ± 0.041 | C -0.088 ± 0.046 | R -0.062 ± 0.045 | T -0.099 ± 0.05 | F -0.044 ± 0.045 | A 0.005 ± 0.043 | W -0.126 ± 0.077 | L -0.009 ± 0.043 | P -0.621 ± 0.083 | M 0.045 ± 0.1 | S 0.023 ± 0.037 | Q 0.032 ± 0.091 | Y -0.051 ± 0.045 | D 0.051 ± 0.057 | N -0.025 ± 0.046
N44: Q -0.038 ± 0.049 | V -0.246 ± 0.042 | P -0.391 ± 0.055 | G -0.004 ± 0.036 | W -0.089 ± 0.041 | A -0.016 ± 0.041 | F -0.075 ± 0.067 | L -0.16 ± 0.038 | I -0.342 ± 0.099 | Y -0.049 ± 0.088 | K 0.016 ± 0.049 | E -0.042 ± 0.052 | S -0.02 ± 0.043 | D 0.071 ± 0.062 | T -0.054 ± 0.052 | M -0.081 ± 0.049 | H -0.045 ± 0.08
I47: C 0.049 ± 0.057 | K 0.018 ± 0.11 | V -0.019 ± 0.058 | Y -0.128 ± 0.05 | W -0.193 ± 0.1 | H -0.018 ± 0.043 | R 0.03 ± 0.049 | F -0.01 ± 0.047 | D -0.065 ± 0.057 | L 0.022 ± 0.044 | A -0.035 ± 0.055 | Q -0.024 ± 0.072 | P 0.013 ± 0.058 | S 0 ± 0.038 | E -0.023 ± 0.14 | T 0.027 ± 0.049 | M -0.079 ± 0.09 | G -0.096 ± 0.067
I48: Q -0.013 ± 0.049 | E -0.002 ± 0.056 | W -0.072 ± 0.058 | S -0.122 ± 0.032 | V -0.035 ± 0.038 | D -0.107 ± 0.093 | P -0.131 ± 0.043 | A -0.074 ± 0.037 | R -0.147 ± 0.036 | T -0.026 ± 0.035 | F -0.104 ± 0.044 | M 0.021 ± 0.048 | Y -0.176 ± 0.063 | N -0.015 ± 0.062 | K -0.082 ± 0.06 | L -0.077 ± 0.03 | G -0.033 ± 0.04 | H -0.2 ± 0.075 | C -0.226 ± 0.052

Source: the Human Domainome abundance scans (Beltran et al. 2025)
